Assay results published in publication PMC4705532, ““Click on the bidirectional switch”: the aptasensor for simultaneous detection of lysozyme and ATP with high sensitivity and high selectivity”.

How the values were obtained:
lysozyme [1] = biological target: T1, lysozyme (UniProt P00698 19-147); assay: resonance light scattering; 10 mM Tris pH 7.4, 2.0 uM methyl violet (duplex sensor), target binding 20 min at 37 °C; salt not stated; conditions: protein: commercial
thrombin = thrombin (UniProt P00734;P00734 328-363;364-622); assay: resonance light scattering; 2.0 uM methyl violet; 100-fold excess; 10 mM Tris pH 7.4, 2.0 uM methyl violet (duplex sensor), target binding 20 min at 37 °C; salt not stated
ovalbumin = ovalbumin (UniProt P01012 2-386); assay: as above; conditions: protein: commercial; blunt
papain = biological target: T2, papain (UniProt P00784 134-345); assay: as above; conditions: protein: commercial; blunt
T2 sequence: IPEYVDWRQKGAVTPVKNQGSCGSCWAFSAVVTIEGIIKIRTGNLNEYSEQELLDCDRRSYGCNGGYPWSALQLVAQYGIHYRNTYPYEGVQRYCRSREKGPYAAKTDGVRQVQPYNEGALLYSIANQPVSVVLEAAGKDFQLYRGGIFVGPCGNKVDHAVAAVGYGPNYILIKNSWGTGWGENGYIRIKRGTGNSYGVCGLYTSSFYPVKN

lysozyme [2] = biological target: T1, lysozyme; assay: resonance light scattering; 2.0 uM methyl violet; lysozyme said to open the duplex and bind Lapt; 10 mM Tris pH 7.4, 2.0 uM methyl violet (duplex sensor), target binding 20 min at 37 °C; salt not stated; conditions: protein: commercial; blunt

T1 sequence (P00698 19-147): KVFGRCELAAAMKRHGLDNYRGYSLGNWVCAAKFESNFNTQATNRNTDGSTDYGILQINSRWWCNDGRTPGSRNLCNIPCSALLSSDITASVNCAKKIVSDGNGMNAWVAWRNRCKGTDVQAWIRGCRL
ovalbumin, sequence (P01012 2-386): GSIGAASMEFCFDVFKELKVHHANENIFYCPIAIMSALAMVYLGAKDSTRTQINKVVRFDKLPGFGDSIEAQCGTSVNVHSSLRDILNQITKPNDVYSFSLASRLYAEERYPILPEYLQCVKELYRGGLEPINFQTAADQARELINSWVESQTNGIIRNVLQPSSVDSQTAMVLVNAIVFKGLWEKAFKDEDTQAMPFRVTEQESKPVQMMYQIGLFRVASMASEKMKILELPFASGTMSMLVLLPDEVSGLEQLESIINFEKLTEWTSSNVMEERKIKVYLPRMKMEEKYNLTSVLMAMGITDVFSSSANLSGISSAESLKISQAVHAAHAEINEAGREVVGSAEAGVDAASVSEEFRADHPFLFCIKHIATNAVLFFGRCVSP

B1: Lapt (lysozyme aptamer) (ssDNA)
DNA: ATCTACGAATTCATCAGGGCTAAAGAGTGCAGAGTTACTTAGACCTTCCTCCGCAATACTCCCCCAGGTT
- binding result (lysozyme [1]): binds

B2: Lapt≈Aapt duplex (with methyl violet) (dsDNA)
DNA 1: ATCTACGAATTCATCAGGGCTAAAGAGTGCAGAGTTACTTAGACCTTCCTCCGCAATACTCCCCCAGGTT
DNA 2: AACCTGGGGGAGTATTGCGGAGGAAGGTCTAAGTAACTCTGCACTCTTTAGCCCTGATGAATTCGTAGAT
- binding result (thrombin): no binding
- binding result (ovalbumin): no binding
- binding result (papain): no binding
- binding result (lysozyme [2]): binds
